Values quoted from earlier work in PMC8773757.
Blank lines part the entries; values can stand above or below the substance they belong to.

How the values were obtained:
[1] = target: thymidylate synthase (Homo sapiens) (UniProt P04818)
CDC37 (Homo sapiens) = CDC37 (Homo sapiens) (UniProt Q16543)
p300/CBP (Homo sapiens) = p300/CBP (Homo sapiens) (UniProt Q09472)
[2] = target: HIF-1α PAS-B (Homo sapiens) (UniProt Q16665)

UniProt Q16543, sequence (Q16543 2-378): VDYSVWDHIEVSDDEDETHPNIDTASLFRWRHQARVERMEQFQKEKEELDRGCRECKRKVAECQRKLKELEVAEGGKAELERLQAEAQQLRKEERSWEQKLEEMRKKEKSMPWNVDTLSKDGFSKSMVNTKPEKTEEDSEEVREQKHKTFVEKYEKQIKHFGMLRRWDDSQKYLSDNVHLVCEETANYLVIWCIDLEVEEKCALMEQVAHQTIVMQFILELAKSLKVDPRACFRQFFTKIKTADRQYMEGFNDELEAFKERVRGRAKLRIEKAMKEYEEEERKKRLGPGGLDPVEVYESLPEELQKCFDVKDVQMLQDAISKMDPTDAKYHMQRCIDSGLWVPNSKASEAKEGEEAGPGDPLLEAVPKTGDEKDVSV
UniProt Q09472, sequence (Q09472 2-2414): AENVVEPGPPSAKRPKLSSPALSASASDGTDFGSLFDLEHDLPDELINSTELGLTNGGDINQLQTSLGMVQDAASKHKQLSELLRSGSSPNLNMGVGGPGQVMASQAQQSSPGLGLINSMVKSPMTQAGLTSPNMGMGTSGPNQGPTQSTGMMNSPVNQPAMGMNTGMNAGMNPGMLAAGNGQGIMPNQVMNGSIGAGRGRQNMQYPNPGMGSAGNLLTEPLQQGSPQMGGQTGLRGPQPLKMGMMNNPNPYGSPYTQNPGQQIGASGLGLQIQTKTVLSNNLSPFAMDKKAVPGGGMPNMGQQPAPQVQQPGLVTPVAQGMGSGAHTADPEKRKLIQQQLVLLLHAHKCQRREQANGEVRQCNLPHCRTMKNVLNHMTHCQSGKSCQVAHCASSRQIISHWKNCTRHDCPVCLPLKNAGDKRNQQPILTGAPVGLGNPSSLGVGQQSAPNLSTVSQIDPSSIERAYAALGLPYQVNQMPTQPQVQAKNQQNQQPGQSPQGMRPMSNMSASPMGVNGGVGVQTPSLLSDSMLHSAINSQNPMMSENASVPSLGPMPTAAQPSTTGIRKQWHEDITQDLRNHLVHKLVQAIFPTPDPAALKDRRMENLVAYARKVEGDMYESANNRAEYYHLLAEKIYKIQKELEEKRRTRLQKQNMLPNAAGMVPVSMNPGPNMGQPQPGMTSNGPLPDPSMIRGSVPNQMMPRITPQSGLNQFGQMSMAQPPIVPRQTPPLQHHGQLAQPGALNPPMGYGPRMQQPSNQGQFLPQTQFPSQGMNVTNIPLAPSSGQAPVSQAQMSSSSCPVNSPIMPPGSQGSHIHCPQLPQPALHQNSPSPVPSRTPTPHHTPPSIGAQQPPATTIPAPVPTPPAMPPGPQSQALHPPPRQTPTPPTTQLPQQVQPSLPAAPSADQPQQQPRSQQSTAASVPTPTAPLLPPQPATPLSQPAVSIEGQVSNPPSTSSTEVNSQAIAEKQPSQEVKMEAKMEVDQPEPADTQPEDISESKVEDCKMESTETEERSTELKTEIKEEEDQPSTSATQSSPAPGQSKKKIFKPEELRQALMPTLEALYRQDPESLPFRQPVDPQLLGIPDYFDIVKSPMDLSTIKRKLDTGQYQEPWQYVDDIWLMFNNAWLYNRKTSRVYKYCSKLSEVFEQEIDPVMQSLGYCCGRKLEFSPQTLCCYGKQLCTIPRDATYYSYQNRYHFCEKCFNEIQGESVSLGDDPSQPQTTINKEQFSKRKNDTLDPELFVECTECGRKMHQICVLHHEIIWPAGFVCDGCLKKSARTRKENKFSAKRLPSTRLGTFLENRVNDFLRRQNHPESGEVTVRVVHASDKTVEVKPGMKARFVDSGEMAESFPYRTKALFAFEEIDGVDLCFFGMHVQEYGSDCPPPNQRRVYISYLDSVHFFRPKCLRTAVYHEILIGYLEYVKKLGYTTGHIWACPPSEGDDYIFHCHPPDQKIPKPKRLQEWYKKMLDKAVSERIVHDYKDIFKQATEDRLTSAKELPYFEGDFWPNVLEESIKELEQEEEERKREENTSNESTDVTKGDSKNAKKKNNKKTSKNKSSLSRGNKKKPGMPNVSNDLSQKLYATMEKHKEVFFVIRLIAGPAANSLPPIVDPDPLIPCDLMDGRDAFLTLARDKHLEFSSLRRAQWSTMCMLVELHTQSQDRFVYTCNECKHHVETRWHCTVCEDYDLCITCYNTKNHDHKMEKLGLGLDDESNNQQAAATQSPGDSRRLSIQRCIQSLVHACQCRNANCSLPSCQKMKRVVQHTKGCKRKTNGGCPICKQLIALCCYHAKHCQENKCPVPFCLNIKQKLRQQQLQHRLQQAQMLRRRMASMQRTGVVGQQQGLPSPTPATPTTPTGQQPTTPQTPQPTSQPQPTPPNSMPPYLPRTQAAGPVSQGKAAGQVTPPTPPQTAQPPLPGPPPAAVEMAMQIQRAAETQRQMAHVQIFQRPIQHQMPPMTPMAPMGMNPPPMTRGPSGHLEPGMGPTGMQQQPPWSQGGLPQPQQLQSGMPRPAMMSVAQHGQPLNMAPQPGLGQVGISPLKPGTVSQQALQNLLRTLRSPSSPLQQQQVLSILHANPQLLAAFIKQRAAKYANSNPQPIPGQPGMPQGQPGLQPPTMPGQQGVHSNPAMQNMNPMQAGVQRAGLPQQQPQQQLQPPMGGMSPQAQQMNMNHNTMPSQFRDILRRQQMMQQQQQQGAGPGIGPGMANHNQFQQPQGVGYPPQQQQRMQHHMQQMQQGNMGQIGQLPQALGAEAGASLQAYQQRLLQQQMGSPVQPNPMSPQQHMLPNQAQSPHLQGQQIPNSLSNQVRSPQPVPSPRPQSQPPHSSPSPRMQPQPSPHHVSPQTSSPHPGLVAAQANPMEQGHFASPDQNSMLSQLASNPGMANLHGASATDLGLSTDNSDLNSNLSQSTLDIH
HIF-1α, sequence (Q16665 whole entry): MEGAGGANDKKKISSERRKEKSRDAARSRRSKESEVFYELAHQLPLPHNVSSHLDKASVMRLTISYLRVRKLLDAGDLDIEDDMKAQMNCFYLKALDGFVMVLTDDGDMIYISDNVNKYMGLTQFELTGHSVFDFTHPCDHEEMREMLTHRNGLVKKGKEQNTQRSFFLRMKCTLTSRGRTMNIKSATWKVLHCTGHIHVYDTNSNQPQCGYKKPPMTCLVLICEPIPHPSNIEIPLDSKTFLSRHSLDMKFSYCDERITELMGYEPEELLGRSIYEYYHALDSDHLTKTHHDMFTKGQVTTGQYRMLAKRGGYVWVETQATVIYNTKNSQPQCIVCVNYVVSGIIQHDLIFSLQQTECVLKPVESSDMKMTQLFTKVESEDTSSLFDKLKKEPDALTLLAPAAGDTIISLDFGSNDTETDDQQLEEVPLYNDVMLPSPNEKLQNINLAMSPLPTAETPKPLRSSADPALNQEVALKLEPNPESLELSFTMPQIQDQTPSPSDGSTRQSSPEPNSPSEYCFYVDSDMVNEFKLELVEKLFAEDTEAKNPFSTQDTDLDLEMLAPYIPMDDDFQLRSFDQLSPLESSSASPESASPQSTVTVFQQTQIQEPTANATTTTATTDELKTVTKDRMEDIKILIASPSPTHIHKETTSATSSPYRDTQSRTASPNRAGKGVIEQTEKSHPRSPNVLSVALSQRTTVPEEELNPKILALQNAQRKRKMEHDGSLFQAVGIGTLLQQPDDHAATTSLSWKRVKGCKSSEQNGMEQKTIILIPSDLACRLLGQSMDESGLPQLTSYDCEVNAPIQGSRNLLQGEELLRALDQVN

- Kd [1]: 200 nM
Substance: thymidylate synthase (from UniProt P04818)

- Kd (CDC37 (Homo sapiens)): 100000 nM
Substance: HSP90 (from UniProt P07900)

- Kd (p300/CBP (Homo sapiens)): 7 nM
Substance: HIF-1α (from UniProt Q16665)

Substance: cyclo-CLLFVY
- Kd [2]: 124 nM
